The target of data set [1] is T1, Tel protelomerase (bacteriophage PY54) (UniProt Q8W5V1).
T1 sequence: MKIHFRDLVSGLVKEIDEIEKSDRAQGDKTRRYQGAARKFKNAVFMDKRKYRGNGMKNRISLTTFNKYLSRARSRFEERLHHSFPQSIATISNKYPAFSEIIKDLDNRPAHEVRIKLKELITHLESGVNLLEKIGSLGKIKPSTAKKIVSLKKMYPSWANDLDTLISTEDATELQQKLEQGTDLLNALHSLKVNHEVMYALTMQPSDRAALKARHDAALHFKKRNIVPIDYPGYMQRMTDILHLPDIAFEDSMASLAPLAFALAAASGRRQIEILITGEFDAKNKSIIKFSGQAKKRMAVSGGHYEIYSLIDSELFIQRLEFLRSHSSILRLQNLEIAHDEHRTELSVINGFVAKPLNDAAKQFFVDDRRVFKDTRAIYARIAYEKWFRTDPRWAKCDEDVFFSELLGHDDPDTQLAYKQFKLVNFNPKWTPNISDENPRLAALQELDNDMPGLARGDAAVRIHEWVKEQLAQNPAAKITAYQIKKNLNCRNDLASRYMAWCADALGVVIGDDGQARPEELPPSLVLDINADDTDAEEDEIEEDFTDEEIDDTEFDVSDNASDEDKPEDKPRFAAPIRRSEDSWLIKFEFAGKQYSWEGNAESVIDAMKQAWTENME
In words: cell_activity. The conditions noted are these: SS- integrant at lambda attB, 42 C; no processing of SS- plasmid.

In data set [2] the target is T2, TelN protelomerase (bacteriophage N15) (UniProt Q77WP1).
T2 sequence: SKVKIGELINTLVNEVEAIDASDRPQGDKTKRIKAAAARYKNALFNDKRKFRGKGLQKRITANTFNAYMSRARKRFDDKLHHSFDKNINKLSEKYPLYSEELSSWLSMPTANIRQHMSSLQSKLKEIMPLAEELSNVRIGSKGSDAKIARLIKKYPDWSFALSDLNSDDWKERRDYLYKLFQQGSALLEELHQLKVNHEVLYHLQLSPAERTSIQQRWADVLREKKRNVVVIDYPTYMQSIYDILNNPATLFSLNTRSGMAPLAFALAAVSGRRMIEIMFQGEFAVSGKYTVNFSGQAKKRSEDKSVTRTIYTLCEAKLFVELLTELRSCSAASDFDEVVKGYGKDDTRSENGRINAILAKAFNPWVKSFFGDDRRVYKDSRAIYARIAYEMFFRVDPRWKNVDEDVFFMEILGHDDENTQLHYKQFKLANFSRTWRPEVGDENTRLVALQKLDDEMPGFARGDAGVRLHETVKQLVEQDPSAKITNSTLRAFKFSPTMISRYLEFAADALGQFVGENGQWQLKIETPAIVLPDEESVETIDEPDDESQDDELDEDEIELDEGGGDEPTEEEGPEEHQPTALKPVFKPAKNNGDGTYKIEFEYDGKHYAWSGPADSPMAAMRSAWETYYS
In words: cell_activity. The conditions noted are these: SS- integrant at lambda attB, 42 C.

Take SS-minus plasmid (no target site): the activity (fraction viable) was determined as 1 in data set [1] and 0.6 in data set [2].
